According to US20100120118A1:

Tested on: purified MrpC

Substance: N-terminal histidine-tagged MazF-mx (H-MazF)
- gel-shift assay of MrpC on the mazF-mx promoter (PmazF) after preincubation with H-MazF: Binding of MrpC to the promoter region was found to be inhibited when MrpC was preincubated with MazF-mx
